Source: publication doi:10.1101/2021.05.10.443397

Target: clamp-stabilised KoRV envelope (Env-clamp) (koala retrovirus (KoRV-A))
Test: SEC + other: negative-stain electron microscopy

clamp-stabilised KoRV envelope (Env-clamp)
stoichiometry N: 3
